This assay has as its target T1, purified human Gal-3 (Biolegend) (human, UniProt P17931 1-250).
T1 construct: purified human Galectin-3 bought from Biolegend; No catalogue number printed; source: bought: Biolegend
The assay can be described thus: cell-free binding assay (coated plate, antibody detection by fluorescence); 96-well plates coated with purified human Gal-3 (0.5 µg in 100 µl, 4 °C overnight), blocked with 50 mg/mL BSA; recombinant human RAB10 0.25 to 0.5 µg/well, 4 h at 30 °C; bound RAB10 detected with rabbit anti-RAB10 and AF488 secondary antibody. As to conditions: both partners purified.

One molecule from PMC8192788, “Macropinocytosis requires Gal-3 in a subset of patient-derived glioblastoma stem cells” (Communications Biology, 2021) can be followed below.

T1 sequence (P17931 whole entry): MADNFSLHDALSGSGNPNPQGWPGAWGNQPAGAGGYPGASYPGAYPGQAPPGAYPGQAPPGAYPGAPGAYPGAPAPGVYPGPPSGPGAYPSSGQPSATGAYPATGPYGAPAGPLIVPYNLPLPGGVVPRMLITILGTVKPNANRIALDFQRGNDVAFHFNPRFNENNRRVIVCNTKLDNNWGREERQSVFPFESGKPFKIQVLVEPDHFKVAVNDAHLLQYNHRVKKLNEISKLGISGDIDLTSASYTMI

B1: recombinant human RAB10 (Prospec PRO-1361) (natural protein, UniProt P61026 1-200, looked up)
chain: MAKKTYDLLFKLLLIGDSGVGKTCVLFRFSDDAFNTTFISTIGIDFKIKTVELQGKKIKLQIWDTAGQERFHTITTSYYRGAMGIMLVYDITNGKSFENISKWLRNIDEHANEDVERMLLGNKCDMDDKRVVPKGKGEQIAREHGIRFFETSAKANINIEKAFLTLAEDILRKTPVKEPNSENVDISSGGGVTGWKSKCC
notes: recombinant human RAB10 bought from Prospec; The vendor's data sheet for PRO-1361 should give limits and any His tag; source: bought: Prospec
In the case of B1, the binding result was “binds”.
